From the nanobody polyreactivity screen of Harvey et al. (2022)

Test: yeast display, Sf9 membrane polyspecificity reagent, FACS + sequencing; frameworks hold sequencing errors
Method in brief: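 Polyreactivity labels are assigned by the sorting gate from which each nanobody was recovered. The gates were low and high (top ~1%), set on anti-HA fluorescence for expression and streptavidin fluorescence for reagent binding. Before sorting, galactose-induced (36–48 hours) yeast display cells were stained for 1 hour at 4 °C with 10% biotinylated, detergent-solubilized Sf9 membrane reagent.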

Sequence | polyreactivity (PSR sort gate)
QVQLVESGGGLVQAGGSLRLSCAASGTIFNEYAMGWYRQAPGKERELVAAISTSGDITYYADSVKGRFTISRDNAKNTVYLQMNSLKPEDTAVYYCAAKYSLLRQYNRLDYWGQGTQVTVSS | low polyreactivity
QVQLEETGGGLVQAGGSLRLTCAASVRTFRGNVMGWYREAPGKERELVAAINWTGSSTYYADSVKGRFTISRDNAKNSVYLQMNSLKPEDTAVYYCATRSGPHGGGLPRDYWGQGTQVTVSS | low polyreactivity
QVQLVESGGGLVQAGGSLRLSCAASGRTFPGNAMGWYRQAPGKERELVAGISYRGGSTYYADSVKGRFTISRDYGKNTVYLQMNSLKPEDTAVYYCARDYSRHKGDYWGQGTQVNVSS | low polyreactivity
QFQLVESGGGLVQAGGSLRLSSAASGFTFVYYVMGWYRQAPGKERELVAAINAGGGSTYYADSVKGRITISRDNAKNTVYLQMYSLKPEDTAVYSFNARVRVRWGRNWSSYYYWGQGTQVTVSS | high polyreactivity
QVQLVESGGRLVQAGVILRLSCAASGSTFAPYAMGWYRQSPGKESELVATISASGGTTYYADSVKGRFTISRDNAKNTVYLQMNSLKPEDTAVYYCNADSNWYDQWNYYGLNDYWGQGTQVTVSS | low polyreactivity
QVQLVESGGGLVQAGGSLRLSCAASGSTFRYYVMGWYRQAPGKERELVARITSAASTNYADSVKGRFTISRDNAKNTVYLQMNSLNPEDTAVYYCAARKYGSRYRLKYDYWGQGTQVTVSS | high polyreactivity
QVQLVESGGGLVQAGGSLRLSCAASGSIFTYNAMGWYRQAPGKERELVAAITRSGGRTYYADSVKGRFTISRDTAKNTVYLQMNSLKPEATAVYYCNTLRVGWGQGTQVTVSS | high polyreactivity
QVQLVESGGGLVQAGGSLRLSCAASGFTNAYYAMGWYRQAPGKEREFVASITSGGSTYYADSVKGRFTISRDNAKNTVYLQMNSLKPEDTAVYYCAARSPFYSYTPGYEYWGQGTQVTVSS | high polyreactivity
QVQLVESGGGLVQAGGSLRLSCAASGRTFIRYTMGWYRQASGKERELVAAITSTGRTYYADSVKGRFTFSRDNAKNTVYLEMNSLKPEDTAVYYCAAKQSWEVYDYWGQGTQVTVSS | low polyreactivity
QVQLVESGGGLVQAGGSLRLSCAASGFTFSSNAMGWFRQAPGKERELVAAISFSGTRTYYADSVKGRFTISRDNAKKTVYLQMNSLKPEDTAVYYCAAGRHYGPLSGRTKGMEYWGQGTQVTVSS | high polyreactivity
QVQLVESGGGLLQAGGSLRLSCAASGRNFTHNAMGWYRQAPRKERELVAAITSGGRTTYADSVKGRFTISRDNAKNTVYLQMNSLKPEDSAVYYCNADTGLGSLDFDKRDYWGQGTQVTVSS | low polyreactivity
QVKLVDSGGGLVQAGGSLRLSCAASGRIIRINAMGWYRQAPGKERELVAAITRGGTTYADSVKGRFTISRDNAKNTVYLQMNSLKPEDTAVYYCNARTGRSPTGFRYWGQGTQVTVSS | high polyreactivity
QVQLVESGGGLVQAGGSLLLICAASGSILGTNAMGWYRQAPGKERELVAAISSSGRTSYADSVKGRFTISRDNAKNTVSLQMNSLKPEDTAVYYCNASNYIVLIIDPDAAPWLYDYWGQGTQVTVSS | low polyreactivity
QVQLVESGGGLVQAGGSLRLSCAPSGYIIRQYAMGWYRQAPGKEREFVAAISQTGGSTYYADSVKGRFTISRDNAKNTVYLQMNSLKPEDTAVYYCAARYRGQRYRKLDYWGQGTQVTVSS | high polyreactivity
QVQLVESGGGLVQAGGSLSLSCAASGLIFYIYAMGWYRQAPGKEMELVAAITESGGSTYYADSVKGRFTISRDNAKNTVYLQMNSLKPEDTAVYYCAKDFHNYPSFGEDYWGQGTQVTVSS | low polyreactivity
QVQLVESGGGLVQAGGSLRLSCAASGRIYYSNDMRWYRQAPGKERELVAAISRRDGSTYYADSVKGRFTISRDNAKNTVYLQMNSLKPEDTAVYYCRYYSYRYGYWGQGTQVTVSS | high polyreactivity
QVQLVESWGGLVQAGGSLRLSCVPPDSSSLTILWDGIDRRLGKKGSWLPVLTSRGVGTYYADSVKGRFTNSRDNAKNTFYLQMNSMKPEDSAVYYCNARYEVFYRYDYWGHGTQVTVSS | low polyreactivity
QVKLVESGGGLVQAGGSLRLSCAASGRTFINYAMGWYRQAPGKERELVAAITTGGRTNYADSVKGRFTISRDNSKNTVYLQMNSLKPEDTEVYYCAADRYDWGRNTLNYWGQGTQVTVSS | low polyreactivity
QVQLVESGGGLVQAGGSLRLSCAASGLTFEWYAMGWYRQAPGKERELVAAISWNGGSTYYADSVKGRFTISRDNAKNTVYLQMNSLKPEDTAVYYCATSSPRRYYWGQGTQVTVSS | high polyreactivity
QVQLVESGGGLVQAGGSLRLSCAASGFTIQRYAMGWYRQAPGKERELVAAITSGGSTYYADSVKGRFTISRDNAKNTVYLQMNSLKPEDTAVYYCATRAVWSSWGRRYDSWGQGTQVTVSS | high polyreactivity
QVQLVESGGGLVQAGGSLRLSCAASGSTFYFNAMGWYRQAPGKERELVAGIRYSGSSTYYADSVKGRFTISRDNAKNTVYLQMNSLKPEYTAVYYCAAERWWYTVRGYGYWGQGTQVTVSS | high polyreactivity
QVQLVESGGGLVQAGGSLRLSCAASGIIFYLYAMGWYRQARGKEWELVAAISRRGVSTYYADSLMGRFTISRDNAKNTVYLQMNSLKPEDTAVYYCAAAGFGYTGEEYWGQGTQVTVSS | high polyreactivity

Sequence | polyreactivity (PSR sort gate)
QVQLVESGGGLVQAGGSLRLSCAASGRIFTRYAMGWYRQAPGKERELVAAIDRGGSTYYADSVKGRFTISRDNAKNTVYLQMNSLKPEDTAVYYCAARIKAWGLEFYYWGQGTQVTVSS | high polyreactivity
QVQLVESGGGLVQAGGSLRLSCADSGYTIILYVMGWYRQAPGKERELVAVITLSGGITYYADSVKGRFTISRDNAKNTVYLQMNSLKPEDTAVYYCAVDVYHNRYFTLTSWYHYDSWGQGTQVTVSS | low polyreactivity
QVQLVESGGGLVQAGGSLRLSCAASGSTFGYNAMGWYRQAPGKEREFVASIDARGTSTYYADSVKGRFTISRDNAKNTVYLQMNSLKPEYTAVYYCAADAEFTWSTVRLGWIYIWYEYWGQGTQVTVSS | low polyreactivity
QVQLVESGGGLVQAGGSLRLSCADSGSIFGYYAMGRYRQAPGKERELVAAISDGGTITYYADSVKGRFTISRDNAKNTVYLQMNSLKPEDTAVYYCAARSPPRYYEHSYYYWGQGTQETVSS | high polyreactivity
QVQLVESGGGLVQAGGSLRLSCAASGFTFYAYAMGWYRPAPGKERELVAALTGRGGSTYYADSVKGRFTISRDNAKNTVYLQMNSLKPEDTAVYYCNKVKQSDKFNNFSNDYWGQGTQVTVSS | high polyreactivity
QVQLVESGGGLVQAGGSLRLSCAASGRIFIINALGWYRQAPGKERELVAAINTGGGTNYADSVKGRFTISRDNAKNTVYLQMNSLKPEDTAVYYCAARTYDYRARHKDGYWGQGTQVTVSS | high polyreactivity
QVQLVESGGGLVQAGGSLRISCAASGSIFSRNAMGWYRQAPGKERELVAAITSGGSTYYADSVKGRFTISRDNAKNTVYLQMNSLKPEDTAVYYCAAVDYYGYVPEFGYWGQGTQVTVSS | low polyreactivity
QVQLVESGGGLVQAGGSLRLSCAASGFTFHYYTMAWYRQAPGKEREFVAAMSKSGGRTYYADSVKGRFTISRDKAKNTVYLQMNSLKPEDTAVYYCSTVGYWRNRHDYWGQGTQVTVSS | high polyreactivity
QVQLVESGGGLVQEGGSLRLSCAASGSIFLFYAMGWYRPAPGKERELVARITSSGGTTYYADSVKGRFTISRDNAKNTVYLQMNSLKPEDTAVYYCAAAYIRRSPYYYWGQGTQVTVSS | high polyreactivity
QVQLVESGGGLVQAGGSLRLSCAASGSTFYYNAMGWYRQAPGKEREFVAAISSRGGSTYYADSVKGRFTISRDNAKNTVYLQMNSLKPEDTAVYYCAAKYRHRYDWGQGTQVTVSS | high polyreactivity
QVQLVESGGGLVQAGGSLRLSCAASGRTIVYNAMGWYRQAPGKESELVAAITSGGRTYYADSVKGRFTISRDNAKNTVYLQMNSVKPEDTAVYYCATDYYGPDYPLDYWGQGTQVTVSS | low polyreactivity
QVQLVESGGGIVQAGGSLRLSCAASGNTFYPYTMGWYRQAPGKERELVADITYIGGDTYYADSVKGRFTISRDNAKNTVYLQMHTLKPEDTAVYYCNAVEVDHDYFYYGQNEYWGQGTQVTVSS | low polyreactivity
QVQLVESGGGLVQAGGSLRLSCAASGFTFVEYAMGWYRQAPGKERELVASIRRSGGRTYYADSVKGRFTISRDNAKNTVYLQMNSLKPEDTAVYYCAKSVPRYYSKSGLAYEFDYWGQGTQVTVSS | low polyreactivity
QVQLVESGGGLVQAGGSLRLSCAASGSTFFSYVMGWYRQAPGKERELVAAISNGGSTYYADSVKGRFTISRDNAKNSVYLQMNSLKPEDTAVYYCAAGGRRKRGNYWGQGTQVTVSS | high polyreactivity
QVHIVDSCGGLVKAGGSLRLSSAASGSIFHPYTMVWYRQAPGKEMELVAGISQSTDSTYYADSLKGRFTISRDYAKTTVYFQMISLKPEDTAVYYCNRVYDLPLSVVEVDYWGQGTQVTVSS | low polyreactivity
QVQLVESGGGLVQAGGSLRLSCAASGRIFGPNAMGWYRQAPGKETELVAVISTGGSTNYADSVKGRFTISRDNAKNTVYLQMNSLKPEDTAVYYCAAAYQYERGGLYNRFYYWGQGTQVTVSS | low polyreactivity
QVQLVESGGGLVQAGGSLRLSCAASGSTFASYAMGWYRQAPGKEREFVAAISRSGGSTYYADSVKGRFTISRDNAKNTVYLQMTSLKPEDTAVYYCAARSPSADEYYYWGQGTQVTVSS | low polyreactivity
QVQLVESGGGLVQAGGSLRLSCAASGLTFGPYAMGWYRQAPGKERELVAAITSGGNTNYADSVKGRYTISRDNAKNTVYLQMNSLKPEETAVYYCATSYYLAYRSITPYDYWGQGTQVTVSS | low polyreactivity
QVQLVESGGGLDQAGGSLRLSCAASGGIFSVYAMGWYRQAPGKEREFVAAISKSGGRTYYADSVKGRFTISRDTAKKTVYLQMNCLKQVDTAVYYCNADVYPYYRKPWMDYWGQGSQVTVSS | low polyreactivity
QVQLVESGGGLVQAGGSLRLSCAASGRTFYRYAMGWYRQAPGKERELVAVITSGSRTKYADSVKGRFTISRDNAKNTVYLQMNSLKPEDTAVYYCAARVLALEGKSSGEYWGQGTQVTVSS | high polyreactivity
QVQLVESGGGLVQAGGSLRLSCAASGRIFQPNAMGWYRQAPGKERELVAAISSSGGRTYYADSVKGRFTISRDNAKNTVYLQMYSLKPEDSAVYYCNAGGYRYRSYDYWGQGTQVTVSS | high polyreactivity
